Experiment: soluble on expression in E. coli; label from the status in PepcDB or PDB records

Row | Sequence | soluble on expression in E. coli
1 | MGHHHHHHSHMEFPFDVDALFPERITVLDQHLRPPARRPGTTTPARVDLQQQIMTIIDELGKASAKAQNLSAPITSASRMQSNRHVVYILKDSSARPAGKGAIIGFIKVGYKKLFVLDDREAHNEVEPLCILDFYIHESVQRHGHGRELFQYMLQKERVEPHQLAIDRPSQKLLKFLNKHYNLETTVPQVNNFVIFEGFFAHQHRPPAPSLRATRHSRAAAVDPTPAAPARKLPPKRAEGDIKPYSSSDREFLKVAVEPPWPLNRAPRRATPPAHPPPRSSSLGNSPERGPLRPFVPEQELLRSLRLCPPHPTARLLLAADPGGSPAQRRRTR | not soluble
2 | SARIILERFLQGHEQTPPSKSVINSMLRDPSQIPDGVLANQVYQCIVNDCCYGPLVDCIKHAIGYEHEVLLRDLLLKKNLSFLDEDQLRAKGYDKTPDFILQVPVAVEGHIIHWIESKASFGDECSHHAYLHGQFWSYWNRFGPGLVIYWYGFIQELDCNRERGILLKASFPTDIVTLCHSTA | soluble
3 | GTQSTHESLKPQRVQFQSRNFHNILQWQPGRALTGNSSVYFVQYKIYGQRQWKNKEDCWGTQELSCDLTSETSDIQEPYYGRVRAASAGSYSEWSMTPRFTPWWETKIDPPVMNITQVNGSLLVILHAPNLPYRYQKEKNVSIEDYYELLYRVFIINNSLEKEQKVYEGAHRAVEIEALTPHSSYCVVAEIYQPMLDRRSQRSEERCVEIP | soluble
4 | KAEMRHMENKVLESELRQRAVVEASLLETQGRLLEQLESAPEAIICLREDQRIRFANEAACKLFKRSLEQLKRS | not soluble
5 | MPEHLNARVEACYRQAEHFFQRSFPRPTVSFRLRGQKAGVAHLDENLLRFNPQLYRENREHFLEQTVAHEVAHLIAHQLFGPRIRPHGEEWQLIMRGIYGLPPDRCHTYAVKRRATTRYLYRCHCPEHNDFPFSPQRHTLVAKGRRYYCRRCKATLVFTGEVLRELEHHHHHH | soluble
6 | MGSDKIHHHHHHMAKNKTAYVCSECGQDFPRWQGQCNACGEWNTISEVRLAPAKSSAGSVAGYAGAVGGGSKKLSEVEEFEAKKLLTGIGELDRVLCGGLTTGSVNIISGDPGAGKTTILSDLVSRMSQLMPSLYCTAEESLSQFKNRVNRLRLDCNEENLYLMAETNVEAIIAELEAKQVKFAVIDSIQAVVTDLANGSPGSPSQVKGSAQALTQYCKQNNVTMFLVAHVNKNNETAGPQTLIHIVDCLTHLECNDGQVRTLRANKNRFGDVDTVGIFRMTERGMLSVDNPSEIFLSGSTTESPGAAITCIRKGNRNLLLEIQCLTTEAEGEFPQRVCVGLNMNRIKMLTGILRKHTRTKIYHDTYFNLVGGLKIDESETCIDLALVAALLSSLNEFVVPRTTCIMGELSLNGDVRPIDSGVPRVKEAVQHGFTEIFIPFRNYHKSMEGLGAKINPIKTIHELLELIC | not soluble
7 | MVLADLGRKIRNAIGKLGQSTVINEGELDLMLKEVCTALIESDVHIRLVKQLKDNVKKAINFEEIVGGANKRRYIQKTVFNELLKLVDPGVTPFTPTKGRRNVFMFVGLQGSGKTTTCTKMAYYYQRKGWKTCLICADTFRAGAFDQLKQNATKARIPFYGSYSEIDPVKIAAEGVEKFTQEGFEIIIVDTSGRHKQEASLFEEMLQVSNAVTPDNVVFVMDASIGQACEAQARAFSQTVDVASVIITKLDSHAKGGGALSAVAVTKSPVIFIGTGEHIDDFEIFKPKSFVQKLLGMGDIAGLVDMVNDIGIQDNKELVGRLKQGQFTLRDMYEQFQNIMKMGPFSQIMGMIPGFGSEFMTKGNEQESVNRLKRMMTVMDSMSDKELDHPKASELFTKEPNRVARVARGSGSHQQEVRDLLAQYKKFSDVVKKIGSIKGLFNGKNGDINPKNMNPAKMAQLNQQMAKMMDPRVLQQMGGMGGLQNMMQQMARAGKM | not soluble
8 | MSVFTPLARPELETFLAPYGLGRLLDYQGIAAGSENTNYFISLEQGEFVLTLVERGPVQEMPFFIELLDVLHDANLPVPYALRTTDGQALRELAGKPALLQPRLPGKHISEPNTQHCVQIGELLANLHLATREQVLERKTDRGLDWMLSEGRNFLSHLGETQRALLEKSLQEIEDLKPQIMALPRANLHADLFRDNVLFEGTHLTGLIDFYNACSGPMLYDLAIALNDWCSRENGQLDAVRARALLGAYAGLRPFTAAESKLWATMLRIACVRFWLSRLIAAETFAGQDVLIHDPVEFEQRLAERQTPHIALPFAL | soluble
9 | MNSLDSQITALYTLAHELLYLGSDGSPIYSDHFSRLNGDVLSRANTLYPHHGSTDEEEARLCLSLLMGYNATIYNNGDKEVRIQQILNRCWEVLDRLPASLLKVRLLTYCYG | not soluble
10 | MGSDKIHHHHHHMDILTGKCSDRFMAHVLKRRDQEAVRWYVLTLPTAGGGRDRISPSKGLDAELSRRERRGEALFEYFSPSYVEARKVGGKMVNTRQPLLYNYVFVHASEDEIFRLKRTLPLYNFLPRVSSGGRSYFPYLSDREMDTLRWVAASYSNELPVYVPDSGRLLKGDRVRITSGPFTDMEAEVVVQPGGGHKDVMVRILDCLWVPLFEVRAGEYELIELNTGGKHVYTHLDNDRLSEGLHDALGRYHASGVVVDEDACLAREVLRGYASLRAETDVIRCKLYSLLLPAYLLLGESDEFDRLRSTMRSMLPVIKAGQSRALLLVTLYGCTDSSLYQRMAHELVDPWQEEASPKKSKTVLIRRLRDYDRWLKHNE | not soluble
11 | MGSDKIHHHHHHMADKKRLDQLVLERGLVESREKAKVLILAGKVLVNGERVTKASKLVPEDANVELLEEPKYVSRGGYKLESAFESFKIDVSGKVACDIGASTGGFTDFLLQRGAKKVYAVDVGYGQLHWKLRNDPRVVVMEKVNARYLNPDDLGEKVDVVTCDVSFISLKKIIPAISRILKNIGDAVLLVKPQFEAPRKFVKKGIVKDPGVHLEVLEEIRKSLIENGFVVKGCCFSKIKGTEGNIEYFFWVKKEGENAEIDLRKIVEEAWRFFGERER | not soluble
12 | MLSKVQCILNRRTMADVDVDVPSAAPVLDGAMDINTALQEVLKKSLIADGLVHGIHQACKALDKRQAVLCILAESFDEPNYKKLVTALCNEHQIPLIRVDSHKKLGEWSGLCKIDKEGKPRKVCGCSVVVIKDFGEETPALDVVKDHLRQNSLEHHHHHH | not soluble
13 | MGSDKIHHHHHHMEDIIVVENLVKKFGDFEAVKGVSFSVKKGEIFAFLGPNGAGKTTTIHMLTTLLKPTSGKAWVAGHDVLKEPREVRRKIGIVFQDQSLDRELTAYENMYIHGKIYGYGGEKLKKRILELLEFVELLEFKDKPVKTFSGGMARRLEIARSLIHEPEVLFLDEPTIGLDPHTRAHMWEYISKMKKEHNMTIFLTTHYMDEAEQLADRVAIIDHGKIIALGTPTELKRMVGKEIIYVRFSEAVECLEGDFIESCRKLPDGRLELNVEDSGRAIPKIFELAQQKGLKIEEITYHKPTLNDVFLHLTGRELREEGPENSFKTMARMRMRMRR | not soluble
14 | MAREELRRHLVGLIERSRVVIFSKSYCPHSTRVKELFSSLGVECNVLELDQVDDGARVQEVLSEITNQKTVPNIFVNKVHVGGCDQTFQAYQSGLLQKLLQEDLAYDAENLYFQ | soluble
15 | MRADVKPVTVKLVDSQATMETRSLFAFMQEQRRHSIMFGHQHETTQGLTITRTDGTQSDTFNAVGDFAAVYGWDTLSIVAPKAEGDIVAQVKKAYARGGIITVSSHFDNPKTDTQKGVWPVGTSWDQTPAVVDSLPGGAYNPVLNGYLDQVAEWANNLKDEQGRLIPVIFRLYHENTGSWFWWGDKQSTPEQYKQLFRYSVEYLRDVKGVRNFLYAYSPNNFWDVTEANYLERYPGDEWVDVLGFDTYGPVADNADWFRNVVANAALVARMAEARGKIPVISGIGIRAPDIEAGLYDNQWYRKLISGLKADPDAREIAFLLVWRNAPQGVPGPNGTQVPHYWVPANRPENINNGTLEDFQAFYADEFTAFNRDIEQVYQRPTLIVK | soluble
16 | MNREFVEAMQHLALERGVSVEEILKAFKRALRKAYIKRQKGYKKEEIDQGKGPEVDVYIDPNSGRIEMVKVRRVVEKVEDPDKEIALAEALQYDPEVQVGDEMEFPINPEELSRMAIQDLRQILTQRLKESERNRIYNEYKDKEGQVLTGVVTRVDNRGNVFVELGRGEAYLPRSEQIPTEKYHPGQRIKVYLKKVDKSAKGPSLLVSRAHEKLLEHLLKQEVPEIAEGIVEIKAIAREPGRRSKVAVTSHNPNVDPIGACIGHKGQRIQAVSAELGREKVDIILWSKDPKEFIRNALSPAQVGSIELDPEAKKARVKVTKDQHSLAIGTGGQNVRLASKLTGYDIHFEEAEISDLDEALRRAAEEEAEARERKAREEFEKLFRDLG | soluble
17 | MGSDKIHHHHHHAPKKKEEPSPEASSSKRPFRVCLNVSTIAGYKLPVQKQIDLCAEAGFEGIELWTRDVDAFVKQGGTYETLRRQLEGSGLLLENMIGFASWFADDLSKRKEGLNQMRHDMEMVAGLGGKFIAAPAQGVTQLDRTRLPEYSERYRAILDLGDEMGVTPILELWGAGILNQLSDTMAIAIASGHSRASVLLDFYHLYRGGNSFDSLRLINGKILPVFHINDYPELPPRTELRDSDRVFPGDGICPFNKVLPLLYDSGFRGGLSVELFNKGYWETMDVKEVLKKSFEKTTQVINSSMG | not soluble
18 | KKPMFLCVLSSTKTAHIPKLSAAGKTAELTDYTPAGDAELMETGNIISVPVLPMTPPYDTPTPAIMTRSALKLTDAPYHFINSGLIVTPDVPCIDLKANPGEDIREPVAVMDVQGIYERAKLLAKRLRNQADHVVIGESIPGGTTTAMGVLMALGYNGNVSSSADENPLELKKQVVEEGMKASGLTFGCLKDDPMKAIACMGDPMMPAVAGLVAGFQDTDTSVVLAGGTQMAAVYALIKHMGLNTEKIAIATTRYVVEDKSANFIQLTTTLGVPVVYVADPGFGKSSMKGLHRYETGTIKEGAGAGGAMYLAG | not soluble
19 | MWFRNLLVYRLTQDLQLDADSLEKALGEKSARPCASQELTTYGFTAPFGKGPDAPLVHVSQDFFLISARKEERILPGSVVRDALKEKVDEIEAQQMRKVYKKERDQLKDEIVQTLLPRAFIRRSSTFAAIAPSLGLILVDSASAKKAEDLLSTLREALGSLPVRPLSVKVAPTATLTDWVKTQEAAGDFHVLDECELRDTHEDGGVVRCKRQDLTSEEIQLHLTAGKLVTQLSLAWSDKLSFVLDDKLAVKRLRFEDLLQEQAEKDGGEDALGQLDASFTLMMLTFAEFLPALFEALGGEEIPQGV | soluble
20 | MTADALVRAPAEPTHPIREWTTVFVGTGDEHLVVAEGPKHRDWRKIGNVFREPARTAVLGLIRTCIADRELKIETFEGKVADALGPVAAAHPILTPDKSVVVAVQIWSGDPKKNPPDRPNVGAWEWVLSSEDNPPPPQLQLDPGAIELIGMSTRHQDRSVFGPADLYTRSARLSDTLRHVRQIRDCQVKDRFDGTFTIRAEADVTRELRYAERCVEGPAGRRVRGICWDAGTDEALVHESMLDAWLSTMLASTSGMYIAVGDLSYQYPYWLKWVTEHVPGLGHGVSTGQTFALHEEDWPKIIEWVQQVRKGPVSGTVRARRGGGGWLKAEFRGFLLDPLVSDSIGVAVISPEIETIPDETS | not soluble
21 | MIVKTEEELQALKEIGYICAKVRNTMQAATKPGITTKELDNIAKELFEEYGAISAPIHDENFPGQTCISVNEEVAHGIPSKRVIREGDLVNIDVSALKNGYYADTGISFVVGESDDPMKQKVCDVATMAFENAIAKVKPGTKLSNIGKAVHNTARQNDLKVIKNLTGHGVGLSLHEAPAHVLNYFDPKDKTLLTEGMVLAIEPFISSNASFVTEGKNEWAFETSDKSFVAQIEHTVIVTKDGPILTTKIEEE | soluble

Source: the DeepSol protein solubility set
